Measurements reported in patent US20260297181 (published 2026).
Read-outs that look alike come from different tables or passages of the source.

Columns and labels:
[1] = molecular target: T1, insulin (human, UniProt P01308); assay: BLI
[2] = molecular target: T1, insulin; assay: BLI; remark: listed apart in the source

T1 sequence (P01308 25-54, chain 1 of 2): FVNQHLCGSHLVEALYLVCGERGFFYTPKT
T1 sequence (P01308 90-110, chain 2 of 2): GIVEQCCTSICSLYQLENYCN

Binder	Kd [1] [nM]	Kd [2] [nM]
gsLOV (antibody) MAQIQLVQSGPELKKPGETVKISCKASGYTFTDYSMHWVKQAPGKGLKWMDWINTETGVPTYADDFKGRFAFSLETSANTAYLQINDLKNEDTATYFCTRGYGKGYFDVWGAGTTVTVSSAKSTPPSVYPLAPGSGGGGSGEFLATTLERIEKNFVITDPRLPDNPIIFASDSFLQLTEYSREEILGRNCRFLQGPETDRATVRKIRDAIDNQTEVTVQLINYTKSGKKFWNLFHLQPMRDQKGDVQYFIGVQLDGTEHVRDAAEREAVMLIKKTAEEIDEAAKELGGGGSQIVLTQSPTIMSASLGERVTMTCTASSSVSSSYLHWYQQKPGSSPKLWIYSTSNLASGVPARFSGSGSGTSYSLTISSMEAEDAATYYCHQYHRSPPTFGAGTKLELKRADAAKL	100	
gsLOV I272E, A276E "light" (antibody) MAQIQLVQSGPELKKPGETVKISCKASGYTFTDYSMHWVKQAPGKGLKWMDWINTETGVPTYADDFKGRFAFSLETSANTAYLQINDLKNEDTATYFCTRGYGKGYFDVWGAGTTVTVSSAKSTPPSVYPLAPGSGGGGSGEFLATTLERIEKNFVITDPRLPDNPIIFASDSFLQLTEYSREEILGRNCRFLQGPETDRATVRKIRDAIDNQTEVTVQLINYTKSGKKFWNLFHLQPMRDQKGDVQYFIGVQLDGTEHVRDAAEREAVMLEKKTEEEIDEAAKELGGGGSQIVLTQSPTIMSASLGERVTMTCTASSSVSSSYLHWYQQKPGSSPKLWIYSTSNLASGVPARFSGSGSGTSYSLTISSMEAEDAATYYCHQYHRSPPTFGAGTKLELKRADAAKL	63.8	
gsLOV C190A "dark" (antibody) MAQIQLVQSGPELKKPGETVKISCKASGYTFTDYSMHWVKQAPGKGLKWMDWINTETGVPTYADDFKGRFAFSLETSANTAYLQINDLKNEDTATYFCTRGYGKGYFDVWGAGTTVTVSSAKSTPPSVYPLAPGSGGGGSGEFLATTLERIEKNFVITDPRLPDNPIIFASDSFLQLTEYSREEILGRNARFLQGPETDRATVRKIRDAIDNQTEVTVQLINYTKSGKKFWNLFHLQPMRDQKGDVQYFIGVQLDGTEHVRDAAEREAVMLIKKTAEEIDEAAKELGGGGSQIVLTQSPTIMSASLGERVTMTCTASSSVSSSYLHWYQQKPGSSPKLWIYSTSNLASGVPARFSGSGSGTSYSLTISSMEAEDAATYYCHQYHRSPPTFGAGTKLELKRADAAKL	104	
WT anti-insulin scFv (HB125) (antibody) MAQIQLVQSGPELKKPGETVKISCKASGYTFTDYSMHWVKQAPGKGLKWMDWINTETGVPTYADDFKGRFAFSLETSANTAYLQINDLKNEDTATYFCTRGYGKGYFDVWGAGTTVTVSSAKSTPPSVYPLAPGSGGGGSGGGGSGGGGSQIVLTQSPTIMSASLGERVTMTCTASSSVSSSYLHWYQQKPGSSPKLWIYSTSNLASGVPARFSGSGSGTSYSLTISSMEAEDAATYYCHQYHRSPPTFGAGTKLELKRADAA	55.2	55.2

The remaining lines, values ahead:

Kd [1] [nM]	Kd [2] [nM]	Binder
	198	nolinkLOV C185A "dark" (antibody) MAQIQLVQSGPELKKPGETVKISCKASGYTFTDYSMHWVKQAPGKGLKWMDWINTETGVPTYADDFKGRFAFSLETSANTAYLQINDLKNEDTATYFCTRGYGKGYFDVWGAGTTVTVSSAKSTPPSVYPLAPGSGEFLATTLERIEKNFVITDPRLPDNPIIFASDSFLQLTEYSREEILGRNARFLQGPETDRATVRKIRDAIDNQTEVTVQLINYTKSGKKFWNLFHLQPMRDQKGDVQYFIGVQLDGTEHVRDAAEREAVMLIKKTAEEIDEAAKELQIVLTQSPTIMSASLGERVTMTCTASSSVSSSYLHWYQQKPGSSPKLWIYSTSNLASGVPARFSGSGSGTSYSLTISSMEAEDAATYYCHQYHRSPPTFGAGTKLELKRADAAKL
	78.5	nolinkLOV (antibody) MAQIQLVQSGPELKKPGETVKISCKASGYTFTDYSMHWVKQAPGKGLKWMDWINTETGVPTYADDFKGRFAFSLETSANTAYLQINDLKNEDTATYFCTRGYGKGYFDVWGAGTTVTVSSAKSTPPSVYPLAPGSGEFLATTLERIEKNFVITDPRLPDNPIIFASDSFLQLTEYSREEILGRNCRFLQGPETDRATVRKIRDAIDNQTEVTVQLINYTKSGKKFWNLFHLQPMRDQKGDVQYFIGVQLDGTEHVRDAAEREAVMLIKKTAEEIDEAAKELQIVLTQSPTIMSASLGERVTMTCTASSSVSSSYLHWYQQKPGSSPKLWIYSTSNLASGVPARFSGSGSGTSYSLTISSMEAEDAATYYCHQYHRSPPTFGAGTKLELKRADAAKL
	68.7	nolinkLOV I267E, A271E "light" (antibody) MAQIQLVQSGPELKKPGETVKISCKASGYTFTDYSMHWVKQAPGKGLKWMDWINTETGVPTYADDFKGRFAFSLETSANTAYLQINDLKNEDTATYFCTRGYGKGYFDVWGAGTTVTVSSAKSTPPSVYPLAPGSGEFLATTLERIEKNFVITDPRLPDNPIIFASDSFLQLTEYSREEILGRNCRFLQGPETDRATVRKIRDAIDNQTEVTVQLINYTKSGKKFWNLFHLQPMRDQKGDVQYFIGVQLDGTEHVRDAAEREAVMLEKKTEEEIDEAAKELQIVLTQSPTIMSASLGERVTMTCTASSSVSSSYLHWYQQKPGSSPKLWIYSTSNLASGVPARFSGSGSGTSYSLTISSMEAEDAATYYCHQYHRSPPTFGAGTKLELKRADAAKL
